Test results reported in PMC10937716.

What was measured:
Assay in all cases: cryo-EM structure; purified BAV virions (full and partial particles) in 1x PBS pH 7.4; icosahedral reconstruction and local reconstructions of the fivefold vertex, of RdRp and of VP9
[1] = target: Banna virus (BAV) strain YN15-126-01 VP9, receptor binding protein (spike) (Banna virus strain YN15-126-01)
[2] = target: Banna virus (BAV) strain YN15-126-01 VP4, membrane penetration protein (spike) (Banna virus strain YN15-126-01)
[3] = target: Banna virus (BAV) strain YN15-126-01 VP8, outer capsid protein (Banna virus strain YN15-126-01)

How did the stoichiometry N [1] turn out when “Banna virus (BAV) strain YN15-126-01 VP9, receptor binding protein (spike) (natural protein)” was run?
Its stoichiometry N is 3.

Which stoichiometry N [2] does the source give for “Banna virus (BAV) strain YN15-126-01 VP4, membrane penetration protein (spike) (natural protein)” here?
The stoichiometry N was 3.

For “Banna virus (BAV) strain YN15-126-01 VP8, outer capsid protein (natural protein)”, which stoichiometry N [3] is on record?
Its stoichiometry N is 3.
